Test results: patent US20200199244A1 (published 2020)
Residue numbers refer to the chain shown, from its start. Several values for one entry are separate records, joined by “and”; a condition that tells them apart may be missing. Identical values can stand only once. Like-named read-outs stand apart in the source and are kept apart here. One block for each binder: values may come before it.

Columns and labels:
[1] = molecular target: T1, human CD40 (BMS, CY24FEB06-01) (human, UniProt P25942 21-193); experiment: bead RBA, competition with IZ-CD40L
T1 construct: Soluble reagent of the bead and ELISA RBA; It is detected with an anti-human IgG (Fc) mAb, so it may be a CD40-Ig fusion

[2] = molecular target: T2, human CD40 expressed on stably transfected CHO-DG44 cells (human, UniProt P25942 21-277); experiment: CHO-CD40 cell RBA, competition with IZ-CD40L
T2 construct: also called CHO-CD40

[3] = molecular target: T3, biotinylated human CD40 (human, UniProt P25942 21-193, limits assumed, biotinylated (sites not given)); experiment: SPR, BIAcore 3000, dAb injected alone over biotinylated human CD40 on SA chip
T3 construct: Biotinylated human CD40 (supplied by BMS), about 600 RU immobilised on a streptavidin BIAcore chip; also called hCD40

[4] = molecular target: T3, biotinylated human CD40; experiment: SPR, BIAcore 3000 COINJECT over biotinylated human CD40; mixture after first injection; competitor BMS3h-131-2
Procedure: (§1) A BIAcore™ 3000 instrument (GE Healthcare) was used to analyze whether CD40-specific dAbs bound the same CD40 epitope. […] A second flow-cell without any ligand immobilized served as a reference flow-cell for inline referencing. An appropriate dilution of each dAb or Fab to be analyzed was prepared in HBS-EP buffer (0.01 M HEPES pH 7.4 with 0.15 M NaCl, 3 mM EDTA and 0.005% v/v Surfactant P20, GE Healthcare). […] Next, a mixture of the same dAb or Fab as above (at the same final concentration) was prepared with a second dAb or Fab to be analyzed for competition. The COINJECT function of the instrument was used to inject 60 μl of the single-inhibitor dilution across the CD40-immobilized and reference flow-cells in series, followed immediately by a 60 μl injection of the two-inhibitor mixture. Inline subtraction of the signal from the reference cell was performed by the instrument's control software. The experiment was performed at 25° C. and a flow rate of 30 μl/min of HBS-EP. […] The maximum RU obtained for the second injection (the mixture of the two inhibitors) was noted and expressed as a percentage of the RU obtained for the same inhibitor when injected alone.

[5] = molecular target: T3, biotinylated human CD40; experiment: SPR, BIAcore 3000 COINJECT over biotinylated human CD40; mixture after first injection; competitor BMS3h-202-11
Procedure: as §1

[6] = molecular target: T3, biotinylated human CD40; experiment: SPR, BIAcore 3000 COINJECT over biotinylated human CD40; mixture after first injection; competitor BMS3h-37-11
Procedure: as §1

[7] = molecular target: T3, biotinylated human CD40; experiment: SPR, BIAcore 3000 COINJECT over biotinylated human CD40; mixture after first injection; competitor BMS3h-56-5
Procedure: as §1

[8] = molecular target: T3, biotinylated human CD40; experiment: SPR, BIAcore 3000 COINJECT over biotinylated human CD40; mixture after first injection; competitor BMS3h-198-1
Procedure: as §1

[9] = molecular target: T3, biotinylated human CD40; experiment: SPR, BIAcore 3000 COINJECT over biotinylated human CD40; mixture after first injection; competitor BMS3h-56-5; remark: listed apart in the source
Procedure: as §1

[10] = molecular target: T3, biotinylated human CD40; experiment: SPR, BIAcore 3000, dAb injected alone over biotinylated human CD40 on SA chip; remark: listed apart in the source
Procedure: as §1

[11] = molecular target: T4, human CD40 (W109L, L121P) Fc fusion (human, UniProt P25942 21-193); experiment: SPR (ProteOn XPR36), CD40-Fc captured via anti-human IgG(Fc), dAb as analyte, 25 C
T4 construct: Made by site-directed mutagenesis of the wild type construct; no cleavage site is stated; also called hCD40-M4; hCD40 M4 (W109L, L121P); not shown: human IgG1 Fc

[12] = molecular target: T5, human CD40 (H76R, W109L, L121P) Fc fusion (human); experiment: as above
T5 construct: Made by site-directed mutagenesis of the wild type construct; no cleavage site is stated; also called hCD40-M5; hCD40-M5 (H76R, W109L, L121P); not shown: human IgG1 Fc
T5 chain: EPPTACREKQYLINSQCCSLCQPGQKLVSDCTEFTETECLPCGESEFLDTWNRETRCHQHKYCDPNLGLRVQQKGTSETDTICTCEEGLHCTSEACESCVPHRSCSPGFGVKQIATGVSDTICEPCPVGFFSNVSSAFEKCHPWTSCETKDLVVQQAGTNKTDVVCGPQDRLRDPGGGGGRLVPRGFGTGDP

[13] = molecular target: T6, wild type cynomolgus monkey CD40 Fc fusion (cynomolgus monkey (Macaca …)); experiment: as above
T6 construct: also called wt-cyno-CD40; wt-cCD40; not shown: human IgG1 Fc
T6 chain: T5 chain with A95S, S106L, H142R, L172Q

B3: BMS3h-37-11 (other)
VH: EVQLLESGGGLVQPGGSLRLSCAASGFTFEWYEMQWVRKAPGKGLEWVSAISGDGYRTYYADSVKGRFTISRDNSKNTLYLQMNSLRAEDTAVYYCAKELGYFDYRGRGTLVTVSS
notes: Domain antibody (dAb), single human VH domain
RU first dAb alone [3]: 158 RU | Second Injection (% of single dAb RU) [4]: -3.7% | Second Injection (% of single dAb RU) [5]: 42% | Second Injection (% of single dAb RU) [8]: 6.4% | Second Injection (% of single dAb RU) [7]: -15%

B5: BMS3h-41-9 (other)
VH: EVQLLEPGGGLVQPGGSLRLSCAASGFTFTEYEMIWVRKAPGKGMEWVSSISGNGANTYYADSVKGRFTISRDNSKNTLYLQMNSLRPEDTAVYYCAKEPLRFDDWGQGTLVTVSS
notes: as for B3
Second Injection (% of single dAb RU) [9]: 0% | RU first dAb alone [10]: 150 RU

B6: BMS3h-38-2 (other)
VH: EVQLLASGGGLVQPGGSLRLSCAASGFTFEEEEMIWVRQAPGKGLEWVSAISGSGGSTYYADSVKGRFTISRDNSKNTLYLQMNSLRAEDTAVYYCGKEPFRYDYWGQGTLVTVSS
notes: as for B3
Second Injection (% of single dAb RU) [9]: 4% | RU first dAb alone [10]: 170 RU

B7: BMS3h-43 (other)
VH: EVQLLESGGGLVQPGGSLRLSCTASGFTFNMYEMSWVRQAPGKGLEWVSGISRRGFTTYYADSVKGRFTISRDNSKNTLYLQMNSLRAEDTAVYYCAKEPITYAMRYARFDYWGQGTLVTVSS
notes: dAb, single VH
EC50 [1]: 100 nM and 50 nM | EC50 [2]: 5000 nM

B9: BMS3h-56-217 (other)
VH: EVQLLESGGGLVQPGGSLRLSCAASGFTFRDYEMWWVRQAPGKGLERVSAINPWGSLTYYADSVKGRFTISRDNSKNTLYLQMNSLRAEDTAVYYCAKLPFTFEDWGQGTLVTVSS
notes: Anti-human CD40 domain antibody (dAb), a single human VH domain
binding result [11]: no binding (tested: 405 nM (highest dAb concentration)) | binding result [12]: no binding (tested: 405 nM (highest dAb concentration)) | binding result [13]: no binding (tested: 405 nM (highest dAb concentration))

The next lines start with the values.

EC50 [1]: 80 nM | EC50 [2]: 600 nM
B1: BMS3h-198 (other)
VH: EVQLLESGGGLVQPGGSLRLSCAASGFTFAGYEMWWVRQAPGKGLERVSAISGSGGSTYYADSVKGRFTISRDDSKNTLYLQMNSLRAEDTAVYYCAKDPYSFDYWGQGTLVTVSS
notes: dAb, single VH

RU first dAb alone [3]: 176 RU | Second Injection (% of single dAb RU) [4]: 23.2% | Second Injection (% of single dAb RU) [5]: 39% | Second Injection (% of single dAb RU) [6]: 16% | Second Injection (% of single dAb RU) [7]: 0.6%
B2: BMS3h-198-1 (other)
VH: B1 VH with F27S, F29I, K98R
notes: as for B3

RU first dAb alone [3]: 220 RU | Second Injection (% of single dAb RU) [5]: 57% | Second Injection (% of single dAb RU) [8]: 41% | Second Injection (% of single dAb RU) [6]: 25% | Second Injection (% of single dAb RU) [7]: 17%
B4: BMS3h-131-2 (other)
VL: DIQMTQSPSSLSASVGDRVTITCRADSSILWALAWYQQKPGKAPKLLIESSSGLQSGVPSRFSGSGSGTDFTLTISSLQPEDFATYYCVQNAVWPGTFGQGTKVEIKR
notes: Domain antibody (dAb), single human V kappa domain

EC50 [1]: 800 nM | EC50 [2]: 1400 nM
B8: BMS3h-217 (other)
VL: DIQMTQSPSSLSASVGDRVTITCRASHFIGTLLSWYQQKPGKAPKLLITYGSLLQSGVPSRFSGSGSGTDFTLTISSLQPEDFATYYCGQGVLWPATFGQGTKVEIKR
notes: dAb, single VK

RU first dAb alone [3]: 124 RU | Second Injection (% of single dAb RU) [4]: 10.3% | Second Injection (% of single dAb RU) [8]: 18% | Second Injection (% of single dAb RU) [6]: 0.3% | Second Injection (% of single dAb RU) [7]: 7.3%
B10: BMS3h-202-11 (other)
VH: EVQLLESGGGLVQPGGSLRLSCAASGFTFPTAEMLWVRKAPGKGLEWVSSISASGGSTYYADSVKGRFTISRDNSKNTLYLQMNSLRAEDAAVYYCAKEPVSYVATFDYWGQGTLVTVSS
notes: as for B3
